This is an account of results in paper PMC11189300, “Structure of the human KMN complex and implications for regulation of its assembly” (Nature Structural & Molecular Biology, 2024).

B5: Mis12 complex (Mis12C), full length: MIS12, PMF1, NSL1, DSN1 (complex, human)
chain 1: MSVDPMTYEAQFFGFTPQTCMLRIYIAFQDYLFEVMQAVEQVILKKLDGIPDCDISPVQIRKCTEKFLCFMKGHFDNLFSKMEQLFLQLILRIPSNILLPEDKCKETPYSEEDFQHLQKEIEQLQEKYKTELCTKQALLAELEEQKIVQAKLKQTLTFFDELHNVGRDHGTSDFRESLVSLVQNSRKLQNIRDNVEKESKRLKIS
chain 2: MAEASSANLGSGCEEKRHEGSSSESVPPGTTISRVKLLDTMVDTFLQKLVAAGSYQRFTDCYKCFYQLQPAMTQQIYDKFIAQLQTSIREEISDIKEEGNLEAVLNALDKIVEEGKVRKEPAWRPSGIPEKDLHSVMAPYFLQQRDTLRRHVQKQEAENQQLADAVLAGRRQVEELQLQVQAQQQAWQALHREQRELVAVLREPE
chain 3: MAGSPELVVLDPPWDKELAAGTESQALVSATPREDFRVRCTSKRAVTEMLQLCGRFVQKLGDALPEEIREPALRDAQWTFESAVQENISINGQAWQEASDNCFMDSDIKVLEDQFDEIIVDIATKRKQYPRKILECVIKTIKAKQEILKQYHPVVHPLDLKYDPDPAPHMENLKCRGETVAKEISEAMKSLPALIEQGEGFSQVLRMQPVIHLQRIHQEVFSSCHRKPDAKPENFITQIETTPTETASRKTSDMVLKRKQTKDCPQRKWYPLRPKKINLDT
chain 4: MTSVTRSEIIDEKGPVMSKTHDHQLESSLSPVEVFAKTSASLEMNQGVSEERIHLGSSPKKGGNCDLSHQERLQSKSLHLSPQEQSASYQDRRQSWRRASMKETNRRKSLHPIHQGITELSRSISVDLAESKRLGCLLLSSFQFSIQKLEPFLRDTKGFSLESFRAKASSLSEELKHFADGLETDGTLQKCFEDSNGKASDFSLEASVAEMKEYITKFSLERQTWDQLLLHYQQEAKEILSRGSTEAKITEVKVEPMTYLGSSQNEVLNTKPDYQKILQNQSKVFDCMELVMDELQGSVKQLQAFMDESTQCFQKVSVQLGKRSMQQLDPSPARKLLKLQLQNPPAIHGSGSGSCQ
notes: MIS12, human, subunit of the Mis12 complex; PMF1, human, subunit of the Mis12 complex; NSL1, human, subunit of the Mis12 complex; DSN1, human, subunit of the Mis12 complex (DSN1^SORT-HIS); In BLI one partner was biotinylated by sortase (GGGG-biotin peptide); also called Mis12C^WT; wild-type Mis12C; source: Tnao38 insect cells (baculovirus from pBIG1A), purified (Talon, SEC); copies: + + +

Settings in all cases: both partners purified
The target in experiment [1] is B5. The experiment can be described thus: ITC; PEAQ-ITC; 50 mM HEPES pH 8.0, 150 mM NaCl, 1 mM TCEP; 19 injections; one-site binding fit. (ITC needs no label: the signal is the heat of the interaction.)
Experiment [2] addresses T1, DSN1 (subunit of Mis12C in the KMN structure) (human, UniProt Q9H410 1-356).
T1 construct: DSN1, human; also called DSN1^SORT-HIS; source: Tnao38 insect cells (baculovirus), co-expressed in Mis12C, purified (Talon, SEC)
T1 sequence (looked up): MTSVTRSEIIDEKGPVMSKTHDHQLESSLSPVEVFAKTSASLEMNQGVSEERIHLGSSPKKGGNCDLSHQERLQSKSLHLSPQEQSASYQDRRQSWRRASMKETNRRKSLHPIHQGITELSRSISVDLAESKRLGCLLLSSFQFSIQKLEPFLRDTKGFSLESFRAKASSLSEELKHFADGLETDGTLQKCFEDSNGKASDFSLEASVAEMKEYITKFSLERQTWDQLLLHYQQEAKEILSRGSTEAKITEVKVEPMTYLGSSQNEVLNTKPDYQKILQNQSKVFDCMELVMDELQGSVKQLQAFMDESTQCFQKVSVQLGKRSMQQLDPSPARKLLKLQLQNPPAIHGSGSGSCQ
The experiment can be described thus: cryo-EM structure; eight-subunit KMN (full-length Mis12C, SPC24 109–197/SPC25 92–224, ZWINT, KNL1 2,021–2,342), 0.3 mg/ml with 0.003% Triton; reconstruction at 4.5 Å; model fitted from known structures and AF2 predictions and refined against the map.

Experiment [3] has as its target B5. Described as above.
Experiment [4] addresses T2, Ndc80 complex (Ndc80C): NDC80^HEC1, NUF2, SPC24, SPC25 (human, UniProt O14777 1-642; Q9BZD4 1-464; Q8NBT2 1-197; Q9HBM1 1-224).
T2 construct: NDC80 (HEC1), human; NUF2, human; SPC24, human; SPC25, human; also called complete Ndc80C; copies: + + +
The experiment can be described thus: BLI; Octet SA biosensors loaded with the biotinylated ligand, analyte at different concentrations; 25 °C; 50 mM HEPES pH 8.0, 150 mM NaCl, 2 mM TCEP, 0.05% Tween-20; which partner was loaded is not given. Background: In BLI a coated tip is dipped into the sample, and binding shifts an interference pattern.

Broadly, the Kd is the constant that tells how readily two partners part at equilibrium.

T2 sequence (O14777 whole entry, chain 1 of 2): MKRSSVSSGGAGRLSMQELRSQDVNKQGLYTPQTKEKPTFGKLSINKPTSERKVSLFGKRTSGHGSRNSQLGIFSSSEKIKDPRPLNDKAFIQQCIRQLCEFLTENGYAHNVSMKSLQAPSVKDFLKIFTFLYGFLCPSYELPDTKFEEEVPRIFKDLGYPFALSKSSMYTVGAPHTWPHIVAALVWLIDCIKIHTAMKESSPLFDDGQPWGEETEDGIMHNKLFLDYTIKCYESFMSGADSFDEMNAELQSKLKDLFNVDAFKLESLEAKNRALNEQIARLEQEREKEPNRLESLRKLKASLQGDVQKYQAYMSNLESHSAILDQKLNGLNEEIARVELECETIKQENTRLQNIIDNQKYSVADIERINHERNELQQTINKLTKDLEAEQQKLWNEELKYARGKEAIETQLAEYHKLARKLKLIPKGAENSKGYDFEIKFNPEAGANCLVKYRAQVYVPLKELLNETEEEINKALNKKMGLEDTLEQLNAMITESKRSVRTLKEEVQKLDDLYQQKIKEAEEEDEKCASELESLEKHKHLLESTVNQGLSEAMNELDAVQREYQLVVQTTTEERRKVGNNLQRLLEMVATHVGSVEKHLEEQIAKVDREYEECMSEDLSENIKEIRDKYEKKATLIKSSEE
T2 sequence (Q9BZD4 whole entry, chain 2 of 2): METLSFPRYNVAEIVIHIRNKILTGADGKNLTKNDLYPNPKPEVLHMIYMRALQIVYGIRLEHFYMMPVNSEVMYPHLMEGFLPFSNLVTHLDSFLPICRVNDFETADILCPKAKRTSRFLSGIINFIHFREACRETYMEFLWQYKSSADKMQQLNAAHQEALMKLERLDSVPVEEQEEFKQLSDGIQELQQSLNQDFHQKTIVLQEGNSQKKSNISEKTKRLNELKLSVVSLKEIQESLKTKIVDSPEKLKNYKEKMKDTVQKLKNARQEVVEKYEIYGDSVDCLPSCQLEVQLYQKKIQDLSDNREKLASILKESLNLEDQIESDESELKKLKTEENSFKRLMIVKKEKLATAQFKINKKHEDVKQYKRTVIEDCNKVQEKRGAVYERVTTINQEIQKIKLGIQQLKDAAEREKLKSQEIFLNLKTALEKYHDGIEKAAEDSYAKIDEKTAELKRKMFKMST

B1: SPC24/SPC25^L154A-L176A (complex, human)
chain 1: MAAFRDIEEVSQGLLSLLGANRAEAQQRRLLGRHEQVVERLLETQDGAEKQLREILTMEKEVAQSLLNAKEQVHQGGVELQQLEAGLQEAGEEDTRLKASLLQLTRELEELKEIEADLERQEKEVDEDTTVTIPSAVYVAQLYHQVSKIEWDYECEPGMVKGIHHGPSVAQPIHLDSTQLSRKFISDYLWSLVDTEW
chain 2: MVEDELALFDKSINEFWNKFKSTDTSCQMAGLRDTYKDSIKAFAEKLSVKLKEEERMVEMFLEYQNQISRQNKLIQEKKDNLLKLIAEVKGKKQELEVLTANIQDLKEEYSRKKETISTANKANAERLKRLQKSADLYKDRLGLEIRKIYGEKAQFIFTNIDPKNPESPFMFSLHANEARDYEVSDSAPHLEGLAEFQENVRKTNNFSAFLANVRKAFTATVYN
notes: SPC24, human; SPC25, human, L154A and L176A; limits not restated, likely full length; GST cleaved off with 3C protease; also called SPC^M2; source: E. coli BL21(DE3)-codon-plus-RIPL, purified (glutathione-agarose, 3C protease, SEC)
As for B1, the “fold reduction of binding affinity against the wild-type pair” value in experiment [1] is around 27 fold.

B2: SPC24^Y138A/SPC25 (complex, human)
chain 1: MAAFRDIEEVSQGLLSLLGANRAEAQQRRLLGRHEQVVERLLETQDGAEKQLREILTMEKEVAQSLLNAKEQVHQGGVELQQLEAGLQEAGEEDTRLKASLLQLTRELEELKEIEADLERQEKEVDEDTTVTIPSAVAVAQLYHQVSKIEWDYECEPGMVKGIHHGPSVAQPIHLDSTQLSRKFISDYLWSLVDTEW
chain 2: MVEDELALFDKSINEFWNKFKSTDTSCQMAGLRDTYKDSIKAFAEKLSVKLKEEERMVEMFLEYQNQISRQNKLIQEKKDNLLKLIAEVKGKKQELEVLTANIQDLKEEYSRKKETISTANKANAERLKRLQKSADLYKDRLGLEIRKIYGEKLQFIFTNIDPKNPESPFMFSLHLNEARDYEVSDSAPHLEGLAEFQENVRKTNNFSAFLANVRKAFTATVYN
notes: SPC24, human, Y138A; SPC25, human; limits not restated, likely full length; GST cleaved off with 3C protease; also called SPC^M1; source: E. coli BL21(DE3)-codon-plus-RIPL, purified (glutathione-agarose, 3C protease, SEC)
Take B2: the “fold reduction of binding affinity against the wild-type pair” value in experiment [1] is around 5 fold.

B3: SPC25_(92–224) (domain or fragment, human, UniProt Q9HBM1 92-224, looked up)
chain: KKQELEVLTANIQDLKEEYSRKKETISTANKANAERLKRLQKSADLYKDRLGLEIRKIYGEKLQFIFTNIDPKNPESPFMFSLHLNEARDYEVSDSAPHLEGLAEFQENVRKTNNFSAFLANVRKAFTATVYN
notes: SPC25, human, residues 92–224 (RWD domain); source: E. coli BL21(DE3)-codon-plus-RIPL, co-purified with SPC24 (glutathione-agarose, 3C protease, SEC)
B3: the binding result in experiment [2] was “binds”.

B4: KNL1 residues 2,021–2,342 (domain or fragment, human, UniProt Q8NG31 2021-2342, looked up)
chain: GKLVQSAQNEREKLQIKIDEMDKILKKIDNCLTEMETETKNLEDEEKNNPVEEWDSEMRAAEKELEQLKTEEEELQRNLLELEVQKEQTLAQIDFMQKQRNRTEELLDQLSLSEWDVVEWSDDQAVFTFVYDTIQLTITFEESVVGFPFLDKRYRKIVDVNFQSLLDEDQAPPSSLLVHKLIFQYVEEKESWKKTCTTQHQLPKMLEEFSLVVHHCRLLGEEIEYLKRWGPNYNLMNIDINNNELRLLFSSSAAFAKFEITLFLSAYYPSVPLPSTIQNHVGNTSQDDIATILSKVPLENNYLKNVVKQIYQDLFQDCHFYH
notes: KNL1 (CASC5), human, C-terminal region, residues 2,021–2,342; numbering of isoform 1 of the CASC5 gene; also called KNL1_(2,021–2,342); Knl1_(2,021–2,342); source: E. coli BL21(DE3)-Codon-plus-RIPL, purified (glutathione-agarose, TEV cleavage, SEC)
With B4, the binding result in experiment [3] and in experiment [2] was “binds” throughout.
In turn, B5 had an equilibrium dissociation constant (Kd) in experiment [4] of around 6 nM.

B6: Mis12C with KNL1_(2,026–2,342) bound (complex, human)
chain 1: MSVDPMTYEAQFFGFTPQTCMLRIYIAFQDYLFEVMQAVEQVILKKLDGIPDCDISPVQIRKCTEKFLCFMKGHFDNLFSKMEQLFLQLILRIPSNILLPEDKCKETPYSEEDFQHLQKEIEQLQEKYKTELCTKQALLAELEEQKIVQAKLKQTLTFFDELHNVGRDHGTSDFRESLVSLVQNSRKLQNIRDNVEKESKRLKIS
chain 2: MAEASSANLGSGCEEKRHEGSSSESVPPGTTISRVKLLDTMVDTFLQKLVAAGSYQRFTDCYKCFYQLQPAMTQQIYDKFIAQLQTSIREEISDIKEEGNLEAVLNALDKIVEEGKVRKEPAWRPSGIPEKDLHSVMAPYFLQQRDTLRRHVQKQEAENQQLADAVLAGRRQVEELQLQVQAQQQAWQALHREQRELVAVLREPE
chain 3: MAGSPELVVLDPPWDKELAAGTESQALVSATPREDFRVRCTSKRAVTEMLQLCGRFVQKLGDALPEEIREPALRDAQWTFESAVQENISINGQAWQEASDNCFMDSDIKVLEDQFDEIIVDIATKRKQYPRKILECVIKTIKAKQEILKQYHPVVHPLDLKYDPDPAPHMENLKCRGETVAKEISEAMKSLPALIEQGEGFSQVLRMQPVIHLQRIHQEVFSSCHRKPDAKPENFITQIETTPTETASRKTSDMVLKRKQTKDCPQRKWYPLRPKKINLDT
chain 4: MTSVTRSEIIDEKGPVMSKTHDHQLESSLSPVEVFAKTSASLEMNQGVSEERIHLGSSPKKGGNCDLSHQERLQSKSLHLSPQEQSASYQDRRQSWRRASMKETNRRKSLHPIHQGITELSRSISVDLAESKRLGCLLLSSFQFSIQKLEPFLRDTKGFSLESFRAKASSLSEELKHFADGLETDGTLQKCFEDSNGKASDFSLEASVAEMKEYITKFSLERQTWDQLLLHYQQEAKEILSRGSTEAKITEVKVEPMTYLGSSQNEVLNTKPDYQKILQNQSKVFDCMELVMDELQGSVKQLQAFMDESTQCFQKVSVQLGKRSMQQLDPSPARKLLKLQLQNPPAIHGSGSGSCQ
chain 5: SAQNEREKLQIKIDEMDKILKKIDNCLTEMETETKNLEDEEKNNPVEEWDSEMRAAEKELEQLKTEEEELQRNLLELEVQKEQTLAQIDFMQKQRNRTEELLDQLSLSEWDVVEWSDDQAVFTFVYDTIQLTITFEESVVGFPFLDKRYRKIVDVNFQSLLDEDQAPPSSLLVHKLIFQYVEEKESWKKTCTTQHQLPKMLEEFSLVVHHCRLLGEEIEYLKRWGPNYNLMNIDINNNELRLLFSSSAAFAKFEITLFLSAYYPSVPLPSTIQNHVGNTSQDDIATILSKVPLENNYLKNVVKQIYQDLFQDCHFYH
notes: MIS12, human; PMF1, human; NSL1, human; DSN1, human; numbering of isoform 1 of the CASC5 gene; also called Mis12C + KNL1; source: Mis12C: Tnao38 insect cells, purified; KNL1: E. coli BL21(DE3)-Codon-plus-RIPL, purified; copies: + + + +
In experiment [4], B6 yielded a Kd of around 1 nM.
